Reference: PMC11982464, “Structural insight into the catalytic mechanism of the bifunctional enzyme L-fucokinase/GDP-fucose pyrophosphorylase” (The Journal of Biological Chemistry, 2025)

Assays:
[1] = test system: C[C@@H]1O[C@H](OP(=O)(O)O)[C@@H](O)[C@H](O)[C@@H]1O; assay: purified protein; settings: co-substrate GTP, 50 mM Hepes pH 7.5, 2 mM MgCl2
[2] = biological target: the molecule itself; assay: AUC + SEC-MALS; SV-AUC at 20 °C, about 0.5 mg/ml, 50 mM Tris pH 8.0, 150 mM NaCl, 40,000 rpm; SEC-MALS at 1 mg/ml in 50 mM Tris pH 8.0, 150 mM NaCl, ENrich SEC 650 column
[3] = GDP-fucose pyrophosphorylase site

## FKP-FL (L-fucokinase/GDP-β-L-fucose pyrophosphorylase, full length) (Bacteroides fragilis)
[1]; [3]
  Km: 40 ± 4 µM
  kcat: 5.6 ± 0.3 s⁻¹
  kcat/Km: 140000 M⁻¹ s⁻¹

## SUMO-FKP-NTD (Bacteroides fragilis)
[1]
  Km: 80 ± 8 µM

B1: full-length L-fucokinase/GDP-β-L-fucose pyrophosphorylase (FKP-FL) from Bacteroides fragilis 9343 (enzyme, UniProt Q58T34 1-949, looked up)
chain: MQKLLSLPSNLVQSFHELERVNRTDWFCTSDPVGKKLGSGGGTSWLLEECYNEYSDGATFGEWLEKEKRILLHAGGQSRRLPGYAPSGKILTPVPVFRWERGQHLGQNLLSLQLPLYEKIMSLAPDKLHTLIASGDVYIRSEKPLQSIPEADVVCYGLWVDPSLATHHGVFASDRKHPEQLDFMLQKPSLAELESLSKTHLFLMDIGIWLLSDRAVEILMKRSHKESSEELKYYDLYSDFGLALGTHPRIEDEEVNTLSVAILPLPGGEFYHYGTSKELISSTLSVQNKVYDQRRIMHRKVKPNPAMFVQNAVVRIPLCAENADLWIENSHIGPKWKIASRHIITGVPENDWSLAVPAGVCVDVVPMGDKGFVARPYGLDDVFKGDLRDSKTTLTGIPFGEWMSKRGLSYTDLKGRTDDLQAVSVFPMVNSVEELGLVLRWMLSEPELEEGKNIWLRSEHFSADEISAGANLKRLYAQREEFRKGNWKALAVNHEKSVFYQLDLADAAEDFVRLGLDMPELLPEDALQMSRIHNRMLRARILKLDGKDYRPEEQAAFDLLRDGLLDGISNRKSTPKLDVYSDQIVWGRSPVRIDMAGGWTDTPPYSLYSGGNVVNLAIELNGQPPLQVYVKPCKDFHIVLRSIDMGAMEIVSTFDELQDYKKIGSPFSIPKAALSLAGFAPAFSAVSYASLEEQLKDFGAGIEVTLLAAIPAGSGLGTSSILASTVLGAINDFCGLAWDKNEICQRTLVLEQLLTTGGGWQDQYGGVLQGVKLLQTEAGFAQSPLVRWLPDHLFTHPEYKDCHLLYYTGITRTAKGILAEIVSSMFLNSSLHLNLLSEMKAHALDMNEAIQRGSFVEFGRLVGKTWEQNKALDSGTNPPAVEAIIDLIKDYTLGYKLPGAGGGGYLYMVAKDPQAAVRIRKILTENAPNPRARFVEMTLSDKGFQVSRS
notes: The calculated mass is printed as 108 kDa; also called L-fucokinase/GDP-fucose pyrophosphorylase; source: E. coli BL21 (DE3), purified (HiTrap chelating HP, Superdex 200 gel filtration)
[2]
  stoichiometry N: 4

B2: C-terminal domain of FKP (FKP-CTD), individually prepared (domain or fragment, Bacteroides fragilis 9343, UniProt Q58T34 518-949, looked up)
chain: MPELLPEDALQMSRIHNRMLRARILKLDGKDYRPEEQAAFDLLRDGLLDGISNRKSTPKLDVYSDQIVWGRSPVRIDMAGGWTDTPPYSLYSGGNVVNLAIELNGQPPLQVYVKPCKDFHIVLRSIDMGAMEIVSTFDELQDYKKIGSPFSIPKAALSLAGFAPAFSAVSYASLEEQLKDFGAGIEVTLLAAIPAGSGLGTSSILASTVLGAINDFCGLAWDKNEICQRTLVLEQLLTTGGGWQDQYGGVLQGVKLLQTEAGFAQSPLVRWLPDHLFTHPEYKDCHLLYYTGITRTAKGILAEIVSSMFLNSSLHLNLLSEMKAHALDMNEAIQRGSFVEFGRLVGKTWEQNKALDSGTNPPAVEAIIDLIKDYTLGYKLPGAGGGGYLYMVAKDPQAAVRIRKILTENAPNPRARFVEMTLSDKGFQVSRS
notes: L-fucokinase/GDP-fucose pyrophosphorylase (FKP), Bacteroides fragilis 9343, GenBank AY849806, C-terminal domain 518-949 (the abstract says 519-949); The calculated mass is printed as 49 kDa; The abstract gives 519-949, the results 518-949; source: E. coli BL21 (DE3), purified (HiTrap chelating HP, Superdex 200 gel filtration)
[2]
  stoichiometry N: 2
